According to patent publication US20250019680, “ENGINEERED CAS13 FOR ULTRASENSITIVE NUCLEIC ACID DETECTION” (William Marsh Rice University, published 2025):

Columns and labels:
[1] = molecular target: T1, RBD #1L LwaCas13a (ADAR1 708-801 in Loop 1) (Leptotrichia wadei / Homo sapiens); experiment: cleavage_in_vitro; collateral cleavage of RNaseAlert, 30 min; settings: label: body 32P for EMSA
T1 chain: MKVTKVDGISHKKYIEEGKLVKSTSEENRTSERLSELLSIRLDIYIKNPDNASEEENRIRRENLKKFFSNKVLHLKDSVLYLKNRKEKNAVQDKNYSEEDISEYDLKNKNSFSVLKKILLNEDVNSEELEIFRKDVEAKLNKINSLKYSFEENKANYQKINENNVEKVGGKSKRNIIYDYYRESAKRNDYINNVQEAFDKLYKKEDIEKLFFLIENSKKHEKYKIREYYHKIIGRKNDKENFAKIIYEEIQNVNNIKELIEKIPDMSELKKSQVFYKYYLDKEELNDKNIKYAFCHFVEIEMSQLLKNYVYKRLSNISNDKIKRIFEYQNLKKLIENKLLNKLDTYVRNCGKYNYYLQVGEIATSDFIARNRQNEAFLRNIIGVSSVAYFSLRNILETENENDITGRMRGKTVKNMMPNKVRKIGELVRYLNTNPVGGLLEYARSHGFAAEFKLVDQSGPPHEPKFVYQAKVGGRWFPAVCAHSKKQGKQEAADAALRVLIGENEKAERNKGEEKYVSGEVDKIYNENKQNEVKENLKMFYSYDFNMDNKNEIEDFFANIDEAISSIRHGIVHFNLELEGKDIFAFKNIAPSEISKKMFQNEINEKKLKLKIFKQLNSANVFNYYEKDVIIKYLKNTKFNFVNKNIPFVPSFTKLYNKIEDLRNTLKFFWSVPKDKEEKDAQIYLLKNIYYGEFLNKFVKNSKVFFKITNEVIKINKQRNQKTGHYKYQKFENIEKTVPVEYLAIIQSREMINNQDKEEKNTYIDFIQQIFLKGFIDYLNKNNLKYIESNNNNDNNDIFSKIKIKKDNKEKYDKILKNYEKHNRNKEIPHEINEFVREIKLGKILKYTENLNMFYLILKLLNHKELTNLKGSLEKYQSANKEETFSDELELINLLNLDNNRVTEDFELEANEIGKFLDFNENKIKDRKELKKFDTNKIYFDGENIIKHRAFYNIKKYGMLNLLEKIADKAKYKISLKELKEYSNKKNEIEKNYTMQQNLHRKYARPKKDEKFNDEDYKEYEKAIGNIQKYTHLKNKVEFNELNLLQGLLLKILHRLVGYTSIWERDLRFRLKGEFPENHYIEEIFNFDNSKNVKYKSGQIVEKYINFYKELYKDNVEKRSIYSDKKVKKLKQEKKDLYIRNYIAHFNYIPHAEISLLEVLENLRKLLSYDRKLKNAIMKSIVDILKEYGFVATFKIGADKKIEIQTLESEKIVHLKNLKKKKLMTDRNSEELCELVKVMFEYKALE

RBD #3L LwaCas13a [2] = molecular target: T2, RBD #3L LwaCas13a (Leptotrichia wadei / Homo sapiens); experiment: as above; settings: label: body 32P for EMSA
[3] = molecular target: T3, RBD #2L LwaCas13a (hnRNP A1 1-104 in Loop 1) (Leptotrichia wadei / Homo sapiens); experiment: as above; settings: label: body 32P for EMSA
RBD #4L LwaCas13a [4] = molecular target: T4, RBD #4L LwaCas13a (Leptotrichia wadei / Homo sapiens); experiment: as above; settings: label: body 32P for EMSA
[5] = molecular target: T5, RBD #6L LwaCas13a (ADAR1 126-202 in Loop 1) (Leptotrichia wadei / Homo sapiens); experiment: as above; settings: label: body 32P for EMSA
T5 chain: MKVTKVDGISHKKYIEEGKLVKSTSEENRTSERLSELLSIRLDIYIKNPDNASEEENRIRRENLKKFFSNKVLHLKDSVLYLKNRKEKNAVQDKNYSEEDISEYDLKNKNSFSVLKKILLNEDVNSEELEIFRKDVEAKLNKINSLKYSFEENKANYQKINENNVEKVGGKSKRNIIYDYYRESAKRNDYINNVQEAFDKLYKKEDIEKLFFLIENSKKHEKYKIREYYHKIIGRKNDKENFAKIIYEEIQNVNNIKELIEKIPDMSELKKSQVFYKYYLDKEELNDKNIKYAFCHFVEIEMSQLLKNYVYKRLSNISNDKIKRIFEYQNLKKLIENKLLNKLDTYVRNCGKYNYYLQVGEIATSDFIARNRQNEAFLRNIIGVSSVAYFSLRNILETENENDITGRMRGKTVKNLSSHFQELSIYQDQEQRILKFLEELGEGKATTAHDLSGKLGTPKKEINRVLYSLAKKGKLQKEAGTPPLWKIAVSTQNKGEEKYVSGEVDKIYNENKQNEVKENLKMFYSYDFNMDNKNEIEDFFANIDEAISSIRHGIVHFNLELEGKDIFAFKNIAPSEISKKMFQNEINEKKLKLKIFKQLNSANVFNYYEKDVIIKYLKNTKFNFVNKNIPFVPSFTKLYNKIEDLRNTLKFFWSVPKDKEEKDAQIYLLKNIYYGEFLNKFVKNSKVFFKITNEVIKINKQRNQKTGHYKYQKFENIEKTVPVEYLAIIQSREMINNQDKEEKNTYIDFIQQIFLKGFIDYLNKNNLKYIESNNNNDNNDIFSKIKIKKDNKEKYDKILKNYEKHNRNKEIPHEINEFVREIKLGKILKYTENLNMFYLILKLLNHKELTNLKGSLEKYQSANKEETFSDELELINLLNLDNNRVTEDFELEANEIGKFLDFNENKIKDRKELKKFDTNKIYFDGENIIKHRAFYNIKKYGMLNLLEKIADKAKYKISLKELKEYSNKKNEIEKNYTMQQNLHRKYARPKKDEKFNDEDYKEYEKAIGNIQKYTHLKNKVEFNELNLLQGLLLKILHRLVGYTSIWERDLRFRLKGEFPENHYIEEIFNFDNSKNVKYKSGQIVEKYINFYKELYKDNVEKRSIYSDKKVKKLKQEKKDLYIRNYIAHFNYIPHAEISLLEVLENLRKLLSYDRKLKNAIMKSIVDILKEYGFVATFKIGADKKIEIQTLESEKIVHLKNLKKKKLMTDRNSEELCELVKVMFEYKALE

dWT LwaCas13a [6] = molecular target: T6, dWT LwaCas13a (Leptotrichia wadei, R1046A/H1051A); experiment: EMSA; crRNA complex; 5 mM MgCl2, 37 C; settings: label: body 32P for EMSA
T6 chain: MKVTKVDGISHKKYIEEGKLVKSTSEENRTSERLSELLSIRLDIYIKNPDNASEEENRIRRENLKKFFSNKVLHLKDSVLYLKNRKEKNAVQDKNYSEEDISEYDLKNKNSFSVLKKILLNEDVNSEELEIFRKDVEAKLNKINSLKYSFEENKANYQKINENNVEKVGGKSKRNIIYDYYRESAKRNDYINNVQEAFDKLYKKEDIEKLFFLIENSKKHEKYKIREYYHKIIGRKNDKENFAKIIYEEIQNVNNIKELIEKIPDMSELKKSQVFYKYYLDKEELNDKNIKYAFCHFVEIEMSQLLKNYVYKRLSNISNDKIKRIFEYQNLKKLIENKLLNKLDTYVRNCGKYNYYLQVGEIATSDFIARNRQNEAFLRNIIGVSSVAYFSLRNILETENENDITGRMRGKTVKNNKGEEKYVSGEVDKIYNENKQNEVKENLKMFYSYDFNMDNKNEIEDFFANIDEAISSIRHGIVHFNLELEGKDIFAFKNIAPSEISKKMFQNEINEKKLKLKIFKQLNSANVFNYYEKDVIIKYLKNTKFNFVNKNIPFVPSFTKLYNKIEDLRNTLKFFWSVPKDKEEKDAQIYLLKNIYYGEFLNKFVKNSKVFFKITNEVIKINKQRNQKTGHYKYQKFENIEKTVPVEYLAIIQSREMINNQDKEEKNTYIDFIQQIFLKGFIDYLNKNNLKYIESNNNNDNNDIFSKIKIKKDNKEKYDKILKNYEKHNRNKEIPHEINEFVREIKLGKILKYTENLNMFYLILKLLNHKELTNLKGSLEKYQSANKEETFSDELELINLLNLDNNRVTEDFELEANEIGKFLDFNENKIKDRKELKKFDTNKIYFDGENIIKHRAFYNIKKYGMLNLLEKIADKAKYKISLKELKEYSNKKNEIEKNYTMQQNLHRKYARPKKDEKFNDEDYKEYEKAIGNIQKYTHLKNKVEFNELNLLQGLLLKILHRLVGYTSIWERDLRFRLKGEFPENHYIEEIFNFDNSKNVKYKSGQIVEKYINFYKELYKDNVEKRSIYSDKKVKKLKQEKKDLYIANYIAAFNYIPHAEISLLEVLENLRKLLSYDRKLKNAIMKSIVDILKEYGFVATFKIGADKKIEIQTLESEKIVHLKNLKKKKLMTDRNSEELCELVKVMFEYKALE

dWT LwaCas13a [7] = molecular target: T6, dWT LwaCas13a; experiment: EMSA; crRNA complex; 50 mM Tris pH 8.0, 60 mM NaCl, 5 mM MgCl2, 37 C; settings: label: body 32P
RBD #3L LwaCas13a [8] = molecular target: T2, RBD #3L LwaCas13a; experiment: cleavage_in_vitro; collateral cleavage of RNaseAlert
[9] = molecular target: T3, RBD #2L LwaCas13a (hnRNP A1 1-104 in …); experiment: as above
RBD #4L LwaCas13a [10] = molecular target: T4, RBD #4L LwaCas13a; experiment: as above
[11] = molecular target: T5, RBD #6L LwaCas13a (ADAR1 126-202 in …); experiment: as above

B1: cr1_N crRNA ; T1_N target (105 nt) (ssRNA ; ssRNA)
RNA 1: GACUACCCCAAAAACGAAGGGGACUAAAACAAUCUGAGGGUCCACCAAACGUAAUGCG
RNA 2: GUCUGAUAAUGGACCCCAAAAUCAGCGAAAUGCACCCCGCAUUACGUUUGGUGGACCCUCAGAUUCAACUGGCAGUAACCAGAAUGGAGAACGCAGUGGGGCGCG
- binding signal [1]: 59 % higher than WT
- binding signal (RBD #3L LwaCas13a [2]): 468 % higher than WT
- binding signal [3]: 216 % higher than WT
- binding signal (RBD #4L LwaCas13a [4]): 518 % higher than WT
- binding signal [5]: 174 % higher than WT
- Kd (dWT LwaCas13a [6]): 16 nM

B2: cr1_N crRNA ; T26_N_2 target (36 nt) (ssRNA ; ssRNA)
RNA 1: B1 RNA 1
RNA 2: ACCCCGCAUUACGUUUGGUGGACCCUCAGAUUCAAC
- Kd (dWT LwaCas13a [7]): 46 nM

B3: cr3_ssRNA1_0 crRNA ; T3_ssRNA1 target (ssRNA ; ssRNA)
RNA 1: GACUACCCCAAAAACGAAGGGGACUAAAACUAGAUUGCUGUUCUACCAAGUAAUCCAU
RNA 2: GGCCAGUGAAUUCGAGCUCGGUACCCGGGGAUCCUCUAGAAAUAUGGAUUACUUGGUAGAACAGCAAUCUACUCGACCUGCAGGCAUGCAAGCUUGGCGUAAUCAUGGUCAUAGCUGUUUCCUGUGUUUAUCCGCUCACAAUUCCACACAACAUACGAGCCGGAAGCAUAAAG
- binding signal (RBD #3L LwaCas13a [8]): 102 % higher than WT
- binding signal [9]: 59 % higher than WT
- binding signal (RBD #4L LwaCas13a [10]): 91 % higher than WT
- binding signal [11]: 38 % higher than WT
